Data on one molecule can be found in publication doi:10.1101/400432, “The deadly touch: protein denaturation at the water-air interface and how to prevent it” (bioRxiv, 2018).

The target in data set [1] is T1, fatty acid synthase subunit encoded by FAS1, twinStrep-II tagged (Saccharomyces cerevisiae) (S. cerevisiae, UniProt P07149 1-2051).
T1 construct: Fatty acid synthase subunit encoded by the FAS1 gene, S. cerevisiae; expressed from plasmid pMF639 (pRS315_FAS1-twinStrep-II); also called strep-tagged FAS; beta (beta-domes)
The data set is described as follows: cryo-EM structure; single-particle cryo-EM of purified FAS complex (0.2 mg/ml) on Quantifoil R0.6/1 grids coated with graphene hydrophilized with 1-pyrCA; about 28,000 particles; maps at 4.8 Å (C1) and 4.0 Å (D3). As to conditions: both partners purified.

Data set [2] deals with the molecule itself. Described as above.

T1 sequence (P07149 whole entry): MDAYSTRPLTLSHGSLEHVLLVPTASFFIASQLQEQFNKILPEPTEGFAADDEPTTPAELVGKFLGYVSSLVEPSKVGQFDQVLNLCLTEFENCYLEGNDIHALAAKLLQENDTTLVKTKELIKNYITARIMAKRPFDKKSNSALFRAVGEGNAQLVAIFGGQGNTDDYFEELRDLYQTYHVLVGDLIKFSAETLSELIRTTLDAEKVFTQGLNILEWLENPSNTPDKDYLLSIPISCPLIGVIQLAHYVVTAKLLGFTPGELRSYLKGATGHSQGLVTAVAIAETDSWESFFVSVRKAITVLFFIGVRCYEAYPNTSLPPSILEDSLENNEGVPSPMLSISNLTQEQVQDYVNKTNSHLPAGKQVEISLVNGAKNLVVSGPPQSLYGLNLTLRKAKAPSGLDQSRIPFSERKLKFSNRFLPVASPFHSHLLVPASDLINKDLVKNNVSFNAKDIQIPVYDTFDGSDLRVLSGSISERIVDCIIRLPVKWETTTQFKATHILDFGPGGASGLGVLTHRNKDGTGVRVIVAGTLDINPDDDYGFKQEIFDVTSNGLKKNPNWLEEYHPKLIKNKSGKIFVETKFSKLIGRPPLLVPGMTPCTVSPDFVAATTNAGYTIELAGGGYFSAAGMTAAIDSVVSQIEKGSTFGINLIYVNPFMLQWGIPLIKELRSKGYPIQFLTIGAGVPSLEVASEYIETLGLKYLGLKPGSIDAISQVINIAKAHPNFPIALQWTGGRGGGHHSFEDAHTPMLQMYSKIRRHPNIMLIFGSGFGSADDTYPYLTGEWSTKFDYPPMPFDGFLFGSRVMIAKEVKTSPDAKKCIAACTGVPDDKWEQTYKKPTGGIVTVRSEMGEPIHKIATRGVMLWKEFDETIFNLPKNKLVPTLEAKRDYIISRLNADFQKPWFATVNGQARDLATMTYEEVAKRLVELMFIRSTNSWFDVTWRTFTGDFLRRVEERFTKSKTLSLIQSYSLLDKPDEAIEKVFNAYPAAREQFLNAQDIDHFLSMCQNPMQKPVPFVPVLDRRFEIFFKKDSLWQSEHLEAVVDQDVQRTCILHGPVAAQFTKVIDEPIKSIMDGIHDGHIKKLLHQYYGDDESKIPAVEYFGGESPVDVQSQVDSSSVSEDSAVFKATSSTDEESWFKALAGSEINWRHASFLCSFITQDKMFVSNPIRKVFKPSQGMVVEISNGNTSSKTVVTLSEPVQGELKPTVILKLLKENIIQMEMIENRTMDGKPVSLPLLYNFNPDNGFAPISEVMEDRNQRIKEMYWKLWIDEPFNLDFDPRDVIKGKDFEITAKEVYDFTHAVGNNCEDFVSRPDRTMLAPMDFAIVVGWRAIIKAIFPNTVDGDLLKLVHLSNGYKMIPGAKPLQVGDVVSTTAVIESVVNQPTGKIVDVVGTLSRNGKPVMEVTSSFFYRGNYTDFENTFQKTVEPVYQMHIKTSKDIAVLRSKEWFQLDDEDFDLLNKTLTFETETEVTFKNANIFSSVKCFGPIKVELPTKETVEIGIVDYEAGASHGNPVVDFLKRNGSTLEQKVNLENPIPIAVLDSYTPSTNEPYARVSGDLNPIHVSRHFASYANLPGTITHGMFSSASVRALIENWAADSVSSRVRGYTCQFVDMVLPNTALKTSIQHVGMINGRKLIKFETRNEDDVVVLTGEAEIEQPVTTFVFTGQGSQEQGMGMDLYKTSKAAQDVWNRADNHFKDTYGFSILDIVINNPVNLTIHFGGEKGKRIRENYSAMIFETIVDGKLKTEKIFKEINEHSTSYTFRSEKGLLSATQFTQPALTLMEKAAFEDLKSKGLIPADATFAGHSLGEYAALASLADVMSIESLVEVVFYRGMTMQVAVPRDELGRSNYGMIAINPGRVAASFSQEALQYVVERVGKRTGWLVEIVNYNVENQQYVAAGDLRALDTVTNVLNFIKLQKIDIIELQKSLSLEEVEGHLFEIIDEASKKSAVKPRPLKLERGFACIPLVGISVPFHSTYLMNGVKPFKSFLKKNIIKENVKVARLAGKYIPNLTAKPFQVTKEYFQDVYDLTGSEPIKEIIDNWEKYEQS

B1: fatty acid synthase subunit encoded by FAS2 (Saccharomyces cerevisiae) (enzyme, S. cerevisiae, UniProt P19097 1-1887, looked up)
chain: MKPEVEQELAHILLTELLAYQFASPVRWIETQDVFLKDFNTERVVEIGPSPTLAGMAQRTLKNKYESYDAALSLHREILCYSKDAKEIYYTPDPSELAAKEEPAKEEAPAPTPAASAPAPAAAAPAPVAAAAPAAAAAEIADEPVKASLLLHVLVAHKLKKSLDSIPMSKTIKDLVGGKSTVQNEILGDLGKEFGTTPEKPEETPLEELAETFQDTFSGALGKQSSSLLSRLISSKMPGGFTITVARKYLQTRWGLPSGRQDGVLLVALSNEPAARLGSEADAKAFLDSMAQKYASIVGVDLSSAASASGAAGAGAAAGAAMIDAGALEEITKDHKVLARQQLQVLARYLKMDLDNGERKFLKEKDTVAELQAQLDYLNAELGEFFVNGVATSFSRKKARTFDSSWNWAKQSLLSLYFEIIHGVLKNVDREVVSEAINIMNRSNDALIKFMEYHISNTDETKGENYQLVKTLGEQLIENCKQVLDVDPVYKDVAKPTGPKTAIDKNGNITYSEEPREKVRKLSQYVQEMALGGPITKESQPTIEEDLTRVYKAISAQADKQDISSSTRVEFEKLYSDLMKFLESSKEIDPSQTTQLAGMDVEDALDKDSTKEVASLPNKSTISKTVSSTIPRETIPFLHLRKKTPAGDWKYDRQLSSLFLDGLEKAAFNGVTFKDKYVLITGAGKGSIGAEVLQGLLQGGAKVVVTTSRFSKQVTDYYQSIYAKYGAKGSTLIVVPFNQGSKQDVEALIEFIYDTEKNGGLGWDLDAIIPFAAIPEQGIELEHIDSKSEFAHRIMLTNILRMMGCVKKQKSARGIETRPAQVILPMSPNHGTFGGDGMYSESKLSLETLFNRWHSESWANQLTVCGAIIGWTRGTGLMSANNIIAEGIEKMGVRTFSQKEMAFNLLGLLTPEVVELCQKSPVMADLNGGLQFVPELKEFTAKLRKELVETSEVRKAVSIETALEHKVVNGNSADAAYAQVEIQPRANIQLDFPELKPYKQVKQIAPAELEGLLDLERVIVVTGFAEVGPWGSARTRWEMEAFGEFSLEGCVEMAWIMGFISYHNGNLKGRPYTGWVDSKTKEPVDDKDVKAKYETSILEHSGIRLIEPELFNGYNPEKKEMIQEVIVEEDLEPFEASKETAEQFKHQHGDKVDIFEIPETGEYSVKLLKGATLYIPKALRFDRLVAGQIPTGWNAKTYGISDDIISQVDPITLFVLVSVVEAFIASGITDPYEMYKYVHVSEVGNCSGSGMGGVSALRGMFKDRFKDEPVQNDILQESFINTMSAWVNMLLISSSGPIKTPVGACATSVESVDIGVETILSGKARICIVGGYDDFQEEGSFEFGNMKATSNTLEEFEHGRTPAEMSRPATTTRNGFMEAQGAGIQIIMQADLALKMGVPIYGIVAMAATATDKIGRSVPAPGKGILTTAREHHSSVKYASPNLNMKYRKRQLVTREAQIKDWVENELEALKLEAEEIPSEDQNEFLLERTREIHNEAESQLRAAQQQWGNDFYKRDPRIAPLRGALATYGLTIDDLGVASFHGTSTKANDKNESATINEMMKHLGRSEGNPVIGVFQKFLTGHPKGAAGAWMMNGALQILNSGIIPGNRNADNVDKILEQFEYVLYPSKTLKTDGVRAVSITSFGFGQKGGQAIVVHPDYLYGAITEDRYNEYVAKVSAREKSAYKFFHNGMIYNKLFVSKEHAPYTDELEEDVYLDPLARVSKDKKSGSLTFNSKNIQSKDSYINANTIETAKMIENMTKEKVSNGGVGVDVELITSINVENDTFIERNFTPQEIEYCSAQPSVQSSFAGTWSAKEAVFKSLGVKSLGGGAALKDIEIVRVNKNAPAVELHGNAKKAAEEAGVTDVKVSISHDDLQAVAVAVSTKK
notes: Fatty acid synthase subunit encoded by the FAS2 gene, S. cerevisiae; expressed from plasmid pMF319d (pRS313_FAS2); also called alpha (alpha wheel)
In the case of B1, the binding result in data set [1] and in data set [2] was “binds” each time.
